# Experimental data: article PMC2854606
# Biological target: T1, endogenous MGR (Mus musculus (C2C12 myoblasts)) (UniProt D2EAC2)
# T1 sequence: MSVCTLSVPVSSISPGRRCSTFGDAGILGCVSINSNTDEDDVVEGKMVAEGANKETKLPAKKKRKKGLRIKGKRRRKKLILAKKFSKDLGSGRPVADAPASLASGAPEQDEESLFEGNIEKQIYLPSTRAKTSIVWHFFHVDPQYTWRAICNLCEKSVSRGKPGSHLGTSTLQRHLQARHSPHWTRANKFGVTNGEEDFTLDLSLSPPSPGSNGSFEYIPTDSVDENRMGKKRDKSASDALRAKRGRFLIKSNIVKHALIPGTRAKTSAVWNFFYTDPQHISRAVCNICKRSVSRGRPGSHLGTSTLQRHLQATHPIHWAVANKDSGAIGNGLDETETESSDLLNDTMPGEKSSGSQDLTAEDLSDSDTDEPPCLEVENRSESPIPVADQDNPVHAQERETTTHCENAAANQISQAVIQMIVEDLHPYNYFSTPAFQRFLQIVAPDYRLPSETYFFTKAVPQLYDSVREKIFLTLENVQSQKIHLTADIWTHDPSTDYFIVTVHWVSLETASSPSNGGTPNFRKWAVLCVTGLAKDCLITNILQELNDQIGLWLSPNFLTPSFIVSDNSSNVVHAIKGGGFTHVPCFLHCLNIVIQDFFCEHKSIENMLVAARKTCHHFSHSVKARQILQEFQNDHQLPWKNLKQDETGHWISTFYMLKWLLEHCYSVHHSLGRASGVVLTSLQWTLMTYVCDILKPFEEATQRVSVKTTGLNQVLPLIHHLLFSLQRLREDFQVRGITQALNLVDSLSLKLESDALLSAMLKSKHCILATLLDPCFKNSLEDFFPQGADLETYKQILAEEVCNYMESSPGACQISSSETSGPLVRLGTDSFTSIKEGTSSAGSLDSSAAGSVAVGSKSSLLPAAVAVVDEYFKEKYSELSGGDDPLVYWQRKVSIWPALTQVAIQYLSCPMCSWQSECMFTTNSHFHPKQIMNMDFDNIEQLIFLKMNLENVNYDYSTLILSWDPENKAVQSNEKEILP
# Experiment: pull-down, SILAC MS
sequence,measurement,value
TTCAAAACTGCAGGATCCTTCGCCTAGGCTCGCAGCGCGGGAGCGA / AATCGCTCCCGCGCTGCGAGCCTAGGCGAAGGATCCTGCAGTTTTG [porcine IGF2 q (pulldown)],binding signal (SILAC ratio q/Q),5.5
